Experimental data as given in patent US20030163846A1, “Process for the genetic modification of a plant” (priority 2000, published 2003).

Experiments:
[1] = yeast growth on a saccharose medium (SUSY7/ura3); format: cell-based; conditions: 2% saccharose medium, pH 5.0
Method: (§1) The yeast strain SUSY7/ura3 is a modified version of SUSY7 (Riesmeier et al., EMBO J. (1992) 11, 4705-4713), which contains a deletion of a portion of the URA3 gene and, as a result, permits selection for uracil auxotrophy. Media that contained the 1.7 g/L yeast nitrogen base without amino acids (Difco), 2% saccharose, 20 mg/L tryptophane, and 1.5% agarose, pH 5.0, were used to analyze yeast growth on a saccharose medium.
(§2) For the saccharose uptake tests, yeast was cultivated in a liquid minimal medium containing glucose, up to an OD623 of approximately 0.8. Cells were collected by means of centrifugation, washed in 25 mM sodium phosphate buffer (pH 5.5), and suspended in the same buffer at an OD623 of 20. The uptake tests were initiated by adding glucose ending at a final concentration of 10 mM to the yeast cells one minute before adding ^14C-saccharose. Following incubation at 30° C. while stirring, cells were collected by means of vacuum filtration on fiberglass filters (1-5 minutes), washed twice with 4 mL 10 mM saccharose (at the freezing point), and the radioactivity was determined using a liquid scintillation counter. […] A significant difference compared with the vector controls is apparent.

[2] = 14C-saccharose uptake tests in yeast expressing SUT4 (SUSY7/ura3); format: cell-based; conditions: for Km: Michaelis-Menten nonlinear regression
Method: as §1, §2
Data for the kinetic analysis were obtained for SUT4 from a nonlinear regression of the uptake measurements using the Michaelis-Menten equation. Km was represented as an average of eight determinations using three independent transformants±standard deviation. The KM value for saccharose that was determined was 11.6±0.6 mM (at a pH of 5.5) and 5.9±0.8 mM (at a pH of 4.0) for SUT4 from arabidopsis. For SUT4 from Solanum tuberosum the KM value was 6.0±1.2 mM (pH 4.0) (see FIG. 5B).

B1: AtSUT4: saccharose transporter SUT4 from Arabidopsis thaliana, amino acid sequence SEQ ID no. 5 (protein, listed as Arabidopsis thaliana)
chain: MATSDQDRRHRATRNRPPIPRPSNSSSRPVVPPPRSKVSKRVLLRVASVACGIQFGWALQLSLLTPYVQELGIPHAWASVIWLCGPLSGLFVQPLVGHSSDRCTSKYGRRRPFIVAGAVAISISVMVIGHAADIGWAFGDREGKIKPRAIVAFVLGFWILDVANNMTQGPCRALLADLTENDNRRTRVANGYFSLFMAVGNVLGYATGSYNGWYKIFTFTKTVACNVECANLKSAFYIDVVFIAITTILSVSAAHEVPLASLTSEAHGQTSGTDEAFLSEIFGTFRYFPGNVWIILLVTALTWIGWFPFILFDTDWMGREIYGGEPNIGTSYSAGVSMGALGLMLNSVFLGITSVLMEKLCRKWGAGFVWGISNILMAICFLGMIITSFVASHLGYIGHEQPPASIVFAAVLIFTILGIPLAITYSVPYALISIRIESLGLGQGLSLGVLNLAIVIPQVIVSVGSGPWDQLFGGGNSPALAVGAATGFIGGIVAILALPRTRIQKPIPLP
With B1 the “yeast growth on saccharose” value [1] was “permitted yeast to grow on saccharose”, the “functional saccharose transporter (uptake of 14C-saccharose vs vector controls)” value ([2]; FIG. 5A) was “functional saccharose transporters” and the Km ([2]; pH 4.0, average ± standard deviation) was 5.9 ± 0.8 mM. The Km ([2]; pH of 5.5, average of eight determinations ± standard deviation) was 11.6 ± 0.6 mM.
